Source: US20200362029A1 (IMMUNOGEN, published 2020)

B1: huMov19 (M9346A) antibody (antibody, V domains shown)
VH: QVQLVQSGAEVVKPGASVKISCKASGYTFTGYFMNWVKQSPGQSLEWIGRIHPYDGDTFYNQKFQGKATLTVDKSSNTAHMELLSLTSEDFAVYYCTRYDGSRAMDYWGQGTTVTVSS
VL: DIVLTQSPLSLAVSLGQPAIISCKASQSVSFAGTSLMHWYHQKPGQQPRLLIYRASNLEAGVPDRFSGSGSKTDFTLTISPVEAEDAATYYCQQSREYPYTFGGGTKLEIKR
notes: Humanized IgG1/kappa; also called huM9346A; huM9346A-biotin
B2: FR57 antibody (antibody, V domains shown)
VH: EVQLVESGGGLVQPGGSRRLSCAASGFTFSSFGMHWVRQAPGKGLEWVAYISSGSSTISYADSVKGRFTISRDNSKKTLLLQMTSLRAEDTAMYYCAREAYGSSMEYWGQGTLVTVSS
VL: EIVLTQSPATLSVTPGDRVSLSCRASQNINNNLHWYQQKPGQSPRLLIKYVSQSVSGIPDRFSGSGSGTDFTLSISSVEPEDFGMYFCQQSNSWPHYTFGQGTKLEIK
notes: Tested as an IgG; Only the variable domains are tied to the stand-alone antibody; also called huFR57; FR1-57
B3: Mov19-G1-FR57scFv1 (Molecule-1: mov19-IgG1-FR57scFv1) (bispecific antibody)
heavy: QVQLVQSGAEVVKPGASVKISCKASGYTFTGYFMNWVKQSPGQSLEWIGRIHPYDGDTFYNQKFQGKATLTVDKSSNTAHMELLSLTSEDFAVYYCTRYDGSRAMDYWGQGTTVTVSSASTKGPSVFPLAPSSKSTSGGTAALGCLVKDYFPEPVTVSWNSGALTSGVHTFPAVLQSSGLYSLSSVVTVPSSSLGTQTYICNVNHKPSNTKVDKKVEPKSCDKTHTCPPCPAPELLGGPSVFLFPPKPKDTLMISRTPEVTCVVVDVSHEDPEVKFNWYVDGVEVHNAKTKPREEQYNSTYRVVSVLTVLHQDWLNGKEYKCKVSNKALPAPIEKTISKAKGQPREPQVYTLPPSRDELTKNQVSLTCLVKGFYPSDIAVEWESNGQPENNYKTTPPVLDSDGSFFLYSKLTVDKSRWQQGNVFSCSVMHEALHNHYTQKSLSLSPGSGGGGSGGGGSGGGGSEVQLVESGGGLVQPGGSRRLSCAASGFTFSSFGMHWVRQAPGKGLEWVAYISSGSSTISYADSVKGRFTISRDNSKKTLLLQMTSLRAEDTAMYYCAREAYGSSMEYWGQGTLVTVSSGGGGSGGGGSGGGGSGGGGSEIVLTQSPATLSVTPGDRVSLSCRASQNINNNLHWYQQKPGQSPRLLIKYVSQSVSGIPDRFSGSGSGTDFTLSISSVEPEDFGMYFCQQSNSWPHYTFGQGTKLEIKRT
light: DIVLTQSPLSLAVSLGQPAIISCKASQSVSFAGTSLMHWYHQKPGQQPRLLIYRASNLEAGVPDRFSGSGSKTDFTLTISPVEAEDAATYYCQQSREYPYTFGGGTKLEIKRTVAAPSVFIFPPSDEQLKSGTASVVCLLNNFYPREAKVQWKVDNALQSGNSQESVTEQDSKDSTYSLSSTLTLSKADYEKHKVYACEVTHQGLSSPVTKSFNRGEC
notes: Tetravalent Morrison format with the FR57 scFv on the C-terminus of the Mov19 IgG1 heavy chain; also called Mov19:FR57scFv; M9346A-FR57scFv
B4: FR57-G1-Mov19scFv1 (Molecule 2: FR57-IgG1-mov19scFv1) (bispecific antibody)
heavy: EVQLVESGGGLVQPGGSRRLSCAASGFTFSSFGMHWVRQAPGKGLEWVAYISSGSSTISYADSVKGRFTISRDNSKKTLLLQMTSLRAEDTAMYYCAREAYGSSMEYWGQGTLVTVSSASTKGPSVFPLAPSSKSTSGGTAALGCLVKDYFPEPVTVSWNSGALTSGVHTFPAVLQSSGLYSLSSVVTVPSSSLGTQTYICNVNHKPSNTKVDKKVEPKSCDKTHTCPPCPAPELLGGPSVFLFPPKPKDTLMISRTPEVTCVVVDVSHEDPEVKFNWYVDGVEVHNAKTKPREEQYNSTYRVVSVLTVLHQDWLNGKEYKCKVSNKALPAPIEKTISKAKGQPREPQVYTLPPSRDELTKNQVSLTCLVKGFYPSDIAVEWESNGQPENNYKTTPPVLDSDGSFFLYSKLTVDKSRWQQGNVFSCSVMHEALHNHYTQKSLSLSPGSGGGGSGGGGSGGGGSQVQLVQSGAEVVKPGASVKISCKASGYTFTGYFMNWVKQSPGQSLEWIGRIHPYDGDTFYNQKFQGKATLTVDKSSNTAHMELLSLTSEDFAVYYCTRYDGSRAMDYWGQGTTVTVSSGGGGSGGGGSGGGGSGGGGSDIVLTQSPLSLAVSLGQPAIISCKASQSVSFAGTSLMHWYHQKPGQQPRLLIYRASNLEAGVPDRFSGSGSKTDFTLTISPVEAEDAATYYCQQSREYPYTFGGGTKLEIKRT
light: EIVLTQSPATLSVTPGDRVSLSCRASQNINNNLHWYQQKPGQSPRLLIKYVSQSVSGIPDRFSGSGSGTDFTLSISSVEPEDFGMYFCQQSNSWPHYTFGQGTKLEIKRTVAAPSVFIFPPSDEQLKSGTASVVCLLNNFYPREAKVQWKVDNALQSGNSQESVTEQDSKDSTYSLSSTLTLSKADYEKHKVYACEVTHQGLSSPVTKSFNRGEC
notes: Tetravalent Morrison format with the Mov19 scFv on the C-terminus of the FR57 IgG1 heavy chain; also called FR57:Mov19scFv; FR57-M9346AscFv

Experiments:
recombinant FRα antigen = recombinant FRα antigen (human, UniProt P15328 25-234); experiment: BLI (Octet96), IgG on anti-human- or anti-murine-Fc sensors, recombinant FRα in solution, 1:1 fit
Experimental: Table 10 summarizes the kinetic parameters of binding of Bin1 and Bin 2 antibodies with recombinant FRα antigen. KD values were obtained via biolayer interferometry performed on Octet96 system (Fortebio) essentially according to manufacturer's recommended procedure. Briefly, anti-human- or anti-murine −Fc sensors were presoaked in 1× Kinetic Buffer (Fortebio) for 10 min and incubated with 5 μg/mL of either Bin 1 or Bin 2 IgG for 5 min. The sensors were then sequentially moved to 1× Kinetic Buffer for 5 min to determine baseline, serial dilutions of antigen for association (10 min), and 1× Kinetic Buffer for dissociation (10 min). The raw data was collected, processed and fitted to a simple 1:1 binding model using Fortebio analysis software to determine the kinetic parameters Kon and Koff.

[1] = biological target: T1, human folate receptor alpha (FRα) on FRα-positive cells (KB, T47D, JHOS-4) (human, UniProt P15328 25-234); experiment: competition FACS on FRα-positive T47D cells; Morrison antibody fixed at 0.8 nM, detected with anti-human FITC secondary; murine parental antibodies titrated (log axis -11 to -7, unit not given; text: 0.2 to 50 nM)
T1 construct: Endogenous FRα on human tumour cell lines; also called FOLR1; folate receptor 1
Experimental: These eight constructs were further polished using ceramic hydroxyapatite chromatography to greater than 95% purity and subjected to further characterization. To account for the effects of overall molecule conformation or potential structural changes of the scFv arms on the binding of the biparatopic arms, the binding efficiency of each arm of the eight Morrison's constructs was assayed by a competition FACS assay. Briefly, FRα-positive T47D cells were incubated with 0.8 nM of a Morrison's antibody mixed with a corresponding murine parental antibody at a range of concentrations, generally from 50 nM to 0.2 nM. After incubation on ice for 2 hours, cells were washed from unbound antibodies, and bound Morrison's antibody was detected with secondary anti-human FITC-labeled antibody. Reduced binding of the Morrison's antibody in the presence of increasing concentration of the parental antibody indicated an effect on binding of the second set of arms.

Chain of recombinant FRα antigen (P15328 25-234 limits assumed): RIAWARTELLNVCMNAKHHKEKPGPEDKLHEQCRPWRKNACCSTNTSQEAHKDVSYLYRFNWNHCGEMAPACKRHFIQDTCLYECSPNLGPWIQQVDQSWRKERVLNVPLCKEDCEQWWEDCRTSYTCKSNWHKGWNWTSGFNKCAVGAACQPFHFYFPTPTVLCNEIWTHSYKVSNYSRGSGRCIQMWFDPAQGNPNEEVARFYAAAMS
T1 sequence (P15328 25-234 limits assumed, stated change not applied): as the sequence (P15328 25-234 limits assumed) above

| Binder | Kd (recombinant FRα antigen) | koff (recombinant FRα antigen) | kon (recombinant FRα antigen) | binding result [1] |
| --- | --- | --- | --- | --- |
| B1 | 600 pM | 0.0003 s⁻¹ | 500000 M⁻¹ s⁻¹ | – |
| B2 | 1000 pM | 0.0004 s⁻¹ | 300000 M⁻¹ s⁻¹ | – |
| B3 | – | – | – | binds |
| B4 | – | – | – | binds |
